# Test results published in PMC13028475.
# Target: FPM13 (Francisella Periplasmic Metalloprotein, 13 kDa), native protein of Francisella novicida (Francisella novicida)
# Experiment: cryo-EM structure
substance,measurement,value
"FPM13 (Francisella Periplasmic Metalloprotein, 13 kDa), native protein of Francisella novicida (natural protein)",stoichiometry N,18
